Assay results published in patent US20140378374A1, “METHODS OF TREATMENT” (GlaxoSmithKline Intellectual Property (No.2) Limited, priority 2013, published 2014).
Where two headings read alike, the source gives them in different places.

Assays:
[1] = in vivo, cited from earlier work
patients with T2DM = experiment: Phase 3 pooled analysis (Harmony 2, 4, 5, 8) of efficacy and safety by renal impairment severity, through primary endpoint (26 to 52 weeks)
Experimental: Patients with T2DM were enrolled in 3 similarly designed Phase 3 studies ^11-13 (Harmony 2, Harmony 4 and Harmony 5) and one Phase 3 study in patients with varying degrees of renal impairment (Harmony 8). ^10 These studies were randomized, double-blind (one open-label), active- (sitagliptin, pioglitazone, or glimepiride) or placebo-controlled, parallel-group, multicenter trials in which albiglutide (30 to 50 mg) was administered once weekly. In all 4 studies, men and nonpregnant women who were ≧18 years of age with a historical diagnosis of T2DM, and who were inadequately controlled (HbA1c≧7.0% and ≦10.0%) on diet and exercise and/or their current regimen of anti-diabetic agents (ie, metformin, thiazolidinedione, sulfonylurea, or any combination of these oral anti-diabetic medications) were eligible to enroll. Additional eligibility criteria included fasting C peptide of ≧0.8 ng/mL (≧0.26 nmol/L) and BMI between 20 and 45 kg/m^2. Harmony 8, the study in CKD patients, required estimated GFR≧15 and <90 mL/min/1.73 m^2, whereas the other 3 studies required estimated GFR>60 mL/min/1.73 m^2. […] Patients who met additional exclusion criteria, including requirements for levels of total bilirubin, alanine aminotransferase, aspartate aminotransferase, amylase, lipase, fasting triglycerides, and hemoglobin were also excluded.
Efficacy (HbA1c, fasting plasma glucose [FPG] and body weight) was assessed in each of the 4 studies by change from baseline to the primary endpoint (week 26 to week 52) using last observation carried forward for missing data. Rescue medications were allowed in subjects with persistent hyperglycemia (REF), however, efficacy data obtained after hyperglycemic rescue were not included and replaced with pre-rescue values for efficacy evaluation. Safety was assessed by monitoring the incidence of treatment emergent adverse events throughout the studies.
To evaluate efficacy and tolerability in different renal population, efficacy and tolerability data from patients with pop PK sample across 4 Phase 3 studies were extracted. Descriptive analysis were conducted up to primary endpoint (week 52 for Harmony 2, Harmony 4 and Harmony 5 and week 26 for study Harmony 8). Baseline demographics are summarized by renal impairment severity (normal, mild, moderate and severe). Efficacy parameters such as change from baseline of HbA1c, FPG, weight are also summarized by renal impairment severity. LOCF (Last Observation Carried Forward) approach is used in efficacy evaluation. Except for hypoglycemia, tolerability (AE, SAE and AE cause withdraw) were summarized by renal impairment severity for all data up to primary endpoint including post-rescue data. Hypoglycemia events (severe and documented symptomatic) were evaluated by renal impairment severity only include pre-rescue data.

[2] = tested on: patients with type 2 diabetes; conditions: head-to-head trial; cited from earlier work
[3] = range over renal function groups of the pooled analysis

Albiglutide: recombinant fusion protein of 2 copies of modified human GLP-1 (fragment 7-36(A8G)) genetically fused in series to recombinant human serum albumin
half-life [1]: approximately 5 days | half-life ([1]; listed as SEQ ID NO:1): about 5 days | neutralizing anti-albiglutide antibodies (patients with T2DM; 4 trials of the pooled analysis): none of the antibodies were neutralizing | Pre-Rescue Hypoglycemia: Documented Symptomatic, With background SU (patients with T2DM; Mild): 70 (17) N (%) | Pre-Rescue Hypoglycemia: Documented Symptomatic, Without background SU (patients with T2DM; Mild): 3 (1.4) N (%) | Pre-Rescue Hypoglycemia: Severe, With background SU (patients with T2DM; Mild): 1 (0.2) N (%) | Pre-Rescue Hypoglycemia: Severe, Without background SU (patients with T2DM; Mild): 0 (0) N (%) | AEs leading to withdrawal (patients with T2DM; Mild (n = 633)): 37 (5.8) N (%) | Abdominal distention (patients with T2DM; Mild (n = 633)): 5 (0.8) N (%) | Anemia (patients with T2DM; Mild (n = 633)): 15 (2.4) N (%) | Any AE (patients with T2DM; Mild (n = 633)): 511 (81) N (%) | Constipation (patients with T2DM; Mild (n = 633)): 25 (3.9) N (%) | Diarrhea (patients with T2DM; Mild (n = 633)): 55 (8.7) N (%) | Edema peripheral (patients with T2DM; Mild (n = 633)): 21 (3.3) N (%) | Gastrointestinal disorders system organ class: Any event (patients with T2DM; Mild (n = 633)): 205 (32) N (%) | Injection site reaction (patients with T2DM; Mild (n = 633)): 51 (8.1) N (%) | Nasopharyngitis (patients with T2DM; Mild (n = 633)): 51 (8.1) N (%) | Nausea (patients with T2DM; Mild (n = 633)): 60 (9.5) N (%) | Pre-Rescue Hypoglycemia: Documented Symptomatic (overall) (patients with T2DM; Mild (n = 633)): 73 (12) N (%) | Pre-Rescue Hypoglycemia: Severe (overall) (patients with T2DM; Mild (n = 633)): 1 (0.2) N (%) | Renal Impairment (adverse event) (patients with T2DM; Mild (n = 633)): 0 (0) N (%) | Serious AE (patients with T2DM; Mild (n = 633)): 52 (8.2) N (%) | Pre-Rescue Hypoglycemia: Documented Symptomatic, With background SU (patients with T2DM; Moderate): 28 (20) N (%) | Pre-Rescue Hypoglycemia: Documented Symptomatic, Without background SU (patients with T2DM; Moderate): 0 (0) N (%) | Pre-Rescue Hypoglycemia: Severe, With background SU (patients with T2DM; Moderate): 0 (0) N (%) | Pre-Rescue Hypoglycemia: Severe, Without background SU (patients with T2DM; Moderate): 0 (0) N (%) | AEs leading to withdrawal (patients with T2DM; Moderate (n = 175)): 11 (6.3) N (%) | Abdominal distention (patients with T2DM; Moderate (n = 175)): 2 (1.1) N (%) | Anemia (patients with T2DM; Moderate (n = 175)): 5 (2.9) N (%) | Any AE (patients with T2DM; Moderate (n = 175)): 139 (79) N (%) | Constipation (patients with T2DM; Moderate (n = 175)): 11 (6.3) N (%) | Diarrhea (patients with T2DM; Moderate (n = 175)): 23 (13) N (%) | Edema peripheral (patients with T2DM; Moderate (n = 175)): 4 (2.3) N (%) | Gastrointestinal disorders system organ class: Any event (patients with T2DM; Moderate (n = 175)): 58 (33) N (%) | Injection site reaction (patients with T2DM; Moderate (n = 175)): 12 (6.9) N (%) | Nasopharyngitis (patients with T2DM; Moderate (n = 175)): 14 (8.0) N (%) | Nausea (patients with T2DM; Moderate (n = 175)): 13 (7.4) N (%) | Pre-Rescue Hypoglycemia: Documented Symptomatic (overall) (patients with T2DM; Moderate (n = 175)): 28 (16) N (%) | Pre-Rescue Hypoglycemia: Severe (overall) (patients with T2DM; Moderate (n = 175)): 0 (0) N (%) | Renal Impairment (adverse event) (patients with T2DM; Moderate (n = 175)): 3 (1.7) N (%) | Serious AE (patients with T2DM; Moderate (n = 175)): 17 (9.7) N (%) | Pre-Rescue Hypoglycemia: Documented Symptomatic, With background SU (patients with T2DM; Normal): 44 (21) N (%) | Pre-Rescue Hypoglycemia: Documented Symptomatic, Without background SU (patients with T2DM; Normal): 0 (0) N (%) | Pre-Rescue Hypoglycemia: Severe, With background SU (patients with T2DM; Normal): 1 (0.3) N (%) | Pre-Rescue Hypoglycemia: Severe, Without background SU (patients with T2DM; Normal): 0 (0) N (%) | AEs leading to withdrawal (patients with T2DM; Normal (n = 286)): 11 (3.8) N (%) | Abdominal distention (patients with T2DM; Normal (n = 286)): 2 (0.7) N (%) | Anemia (patients with T2DM; Normal (n = 286)): 6 (2.1) N (%) | Any AE (patients with T2DM; Normal (n = 286)): 232 (81) N (%) | Constipation (patients with T2DM; Normal (n = 286)): 8 (2.8) N (%) | Diarrhea (patients with T2DM; Normal (n = 286)): 20 (7.0) N (%) | Edema peripheral (patients with T2DM; Normal (n = 286)): 5 (1.7) N (%) | Gastrointestinal disorders system organ class: Any event (patients with T2DM; Normal (n = 286)): 76 (27) N (%) | Injection site reaction (patients with T2DM; Normal (n = 286)): 32 (11) N (%) | Nasopharyngitis (patients with T2DM; Normal (n = 286)): 19 (6.6) N (%) | Nausea (patients with T2DM; Normal (n = 286)): 23 (8.0) N (%) | Pre-Rescue Hypoglycemia: Documented Symptomatic (overall) (patients with T2DM; Normal (n = 286)): 44 (15) N (%) | Pre-Rescue Hypoglycemia: Severe (overall) (patients with T2DM; Normal (n = 286)): 1 (0.3) N (%) | Renal Impairment (adverse event) (patients with T2DM; Normal (n = 286)): 0 (0) N (%) | Serious AE (patients with T2DM; Normal (n = 286)): 17 (5.9) N (%) | Pre-Rescue Hypoglycemia: Documented Symptomatic, With background SU (patients with T2DM; Severe): 4 (29) N (%) | Pre-Rescue Hypoglycemia: Documented Symptomatic, Without background SU (patients with T2DM; Severe): 0 (0) N (%) | Pre-Rescue Hypoglycemia: Severe, With background SU (patients with T2DM; Severe): 0 (0) N (%) | Pre-Rescue Hypoglycemia: Severe, Without background SU (patients with T2DM; Severe): 0 (0) N (%) | AEs leading to withdrawal (patients with T2DM; Severe (n = 19)): 2 (11) N (%) | Abdominal distention (patients with T2DM; Severe (n = 19)): 2 (11) N (%) | Anemia (patients with T2DM; Severe (n = 19)): 4 (21) N (%) | Any AE (patients with T2DM; Severe (n = 19)): 12 (63) N (%) | Constipation (patients with T2DM; Severe (n = 19)): 2 (11) N (%) | Diarrhea (patients with T2DM; Severe (n = 19)): 4 (21) N (%) | Edema peripheral (patients with T2DM; Severe (n = 19)): 3 (16) N (%) | Gastrointestinal disorders system organ class: Any event (patients with T2DM; Severe (n = 19)): 8 (42) N (%) | Injection site reaction (patients with T2DM; Severe (n = 19)): 1 (5.3) N (%) | Nasopharyngitis (patients with T2DM; Severe (n = 19)): 1 (5.3) N (%) | Nausea (patients with T2DM; Severe (n = 19)): 3 (16) N (%) | Pre-Rescue Hypoglycemia: Documented Symptomatic (overall) (patients with T2DM; Severe (n = 19)): 4 (21) N (%) | Pre-Rescue Hypoglycemia: Severe (overall) (patients with T2DM; Severe (n = 19)): 0 (0) N (%) | Renal Impairment (adverse event) (patients with T2DM; Severe (n = 19)): 4 (21) N (%) | Serious AE (patients with T2DM; Severe (n = 19)): 0 (0) N (%) | treatment effect as measured by HbA1c and FPG vs GFR (patients with T2DM; change from baseline, scatter plot): trend towards greater reductions as GFR decreased | thyroid cancer (patients with T2DM; in vivo): No patient developed thyroid cancer | nausea, percentage (patients with T2DM; mild group): 9.5% | vomiting, percentage (patients with T2DM; mild group): 3.2% | nausea, percentage (patients with T2DM; moderate group): 7.4% | vomiting, percentage (patients with T2DM; moderate group): 2.9% | nausea, percentage (patients with T2DM; normal group): 8.0% | vomiting, percentage (patients with T2DM; normal group): 2.1% | subjects with severe hypoglycemic events (patients with T2DM; normal, mild renal impairment, with background SU use): 2 | patients with probable pancreatitis at least possibly related to study drug (patients with T2DM; one with mild and one with moderate renal impairment): Two | nausea percentage, range (patients with T2DM; [3]): 7-16% | vomiting percentage, range (patients with T2DM; [3]): 2-5% | incidence of anti-albiglutide antibodies (patients with T2DM; range over the 4 trials of the pooled analysis): 2.8% to 8.1 | nausea, percentage (patients with T2DM; severe group): 16% | vomiting, percentage (patients with T2DM; severe group): 5.3% | nausea, percentage [2]: 10% | vomiting, percentage [2]: 5%
